# US20240392004A1 (IMMUNOWAKE, published 2024)
# Like-named read-outs stand apart in the source and are kept apart here.
# T1: human IL-2 receptor (IL-2Rα, IL-2Rβ, IL-2Rγ) (human, UniProt P01589 22-272; P14784 27-551; P31785 23-369)
# T1 sequence (looked up) 1: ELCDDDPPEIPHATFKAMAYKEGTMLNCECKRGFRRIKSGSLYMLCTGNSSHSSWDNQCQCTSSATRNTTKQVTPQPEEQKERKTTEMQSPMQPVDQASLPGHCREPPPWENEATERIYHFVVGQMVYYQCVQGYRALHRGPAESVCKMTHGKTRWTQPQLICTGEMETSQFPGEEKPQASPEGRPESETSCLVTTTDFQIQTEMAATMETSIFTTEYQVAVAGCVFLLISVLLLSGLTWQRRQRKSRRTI
# T1 sequence (looked up) 2: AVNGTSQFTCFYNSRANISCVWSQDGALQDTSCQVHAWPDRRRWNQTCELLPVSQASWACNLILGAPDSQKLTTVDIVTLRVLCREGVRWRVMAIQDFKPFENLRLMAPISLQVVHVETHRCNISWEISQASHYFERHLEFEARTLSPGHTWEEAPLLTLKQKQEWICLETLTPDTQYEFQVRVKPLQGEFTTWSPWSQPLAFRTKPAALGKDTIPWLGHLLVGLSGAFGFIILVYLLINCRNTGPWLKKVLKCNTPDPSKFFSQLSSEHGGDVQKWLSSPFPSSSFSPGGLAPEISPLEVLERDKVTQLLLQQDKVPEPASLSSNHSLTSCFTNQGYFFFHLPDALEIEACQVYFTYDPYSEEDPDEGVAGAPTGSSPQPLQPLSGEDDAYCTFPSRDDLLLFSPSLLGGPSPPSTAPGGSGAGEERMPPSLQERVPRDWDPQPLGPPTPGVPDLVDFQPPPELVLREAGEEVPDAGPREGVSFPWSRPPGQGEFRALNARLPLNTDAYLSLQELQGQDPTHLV
# T1 sequence (looked up) 3: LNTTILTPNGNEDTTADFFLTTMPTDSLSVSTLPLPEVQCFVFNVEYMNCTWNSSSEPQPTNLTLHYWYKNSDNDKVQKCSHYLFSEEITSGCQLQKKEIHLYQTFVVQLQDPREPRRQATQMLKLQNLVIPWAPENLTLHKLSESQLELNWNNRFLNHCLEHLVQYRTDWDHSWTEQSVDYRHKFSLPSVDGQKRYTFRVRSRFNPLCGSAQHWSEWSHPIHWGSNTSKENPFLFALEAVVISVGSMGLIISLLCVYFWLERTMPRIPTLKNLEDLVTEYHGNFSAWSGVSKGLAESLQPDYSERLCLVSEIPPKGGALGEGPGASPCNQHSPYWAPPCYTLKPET
# Legend:
# Assay in all cases: cell-based or functional assay
# [1] = molecular target: T2, human PD-1 on cells (HEK-PD-1 reporter cells; activated PBMC) (human, UniProt Q15116 25-288)
# [2] = molecular target: T1, human IL-2 receptor (IL-2Rα, IL-2Rβ, …)
# [3] = molecular target: T2, human PD-1 on cells (HEK-PD-1 reporter …); remark: listed apart in the source
# [4] = molecular target: human IL-12 receptor complex (IL-12Rβ1 and IL-12Rβ2) (human, UniProt P42701 24-662; Q99665 24-862)
# [5] = molecular target: T1, human IL-2 receptor (IL-2Rα, IL-2Rβ, …); remark: listed apart in the source
# T2 sequence (Q15116 25-288): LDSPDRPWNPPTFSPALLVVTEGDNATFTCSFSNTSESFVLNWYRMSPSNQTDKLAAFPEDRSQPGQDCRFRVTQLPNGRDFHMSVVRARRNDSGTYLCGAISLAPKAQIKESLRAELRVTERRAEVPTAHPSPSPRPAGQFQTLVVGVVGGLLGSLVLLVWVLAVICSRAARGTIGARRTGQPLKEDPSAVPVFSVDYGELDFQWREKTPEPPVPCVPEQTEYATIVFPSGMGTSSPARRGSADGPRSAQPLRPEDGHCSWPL
# Sequence of human IL-12 receptor complex (IL-12Rβ1 and IL-12Rβ2) (Q99665 24-862, chain 2 of 2, other chains not shown): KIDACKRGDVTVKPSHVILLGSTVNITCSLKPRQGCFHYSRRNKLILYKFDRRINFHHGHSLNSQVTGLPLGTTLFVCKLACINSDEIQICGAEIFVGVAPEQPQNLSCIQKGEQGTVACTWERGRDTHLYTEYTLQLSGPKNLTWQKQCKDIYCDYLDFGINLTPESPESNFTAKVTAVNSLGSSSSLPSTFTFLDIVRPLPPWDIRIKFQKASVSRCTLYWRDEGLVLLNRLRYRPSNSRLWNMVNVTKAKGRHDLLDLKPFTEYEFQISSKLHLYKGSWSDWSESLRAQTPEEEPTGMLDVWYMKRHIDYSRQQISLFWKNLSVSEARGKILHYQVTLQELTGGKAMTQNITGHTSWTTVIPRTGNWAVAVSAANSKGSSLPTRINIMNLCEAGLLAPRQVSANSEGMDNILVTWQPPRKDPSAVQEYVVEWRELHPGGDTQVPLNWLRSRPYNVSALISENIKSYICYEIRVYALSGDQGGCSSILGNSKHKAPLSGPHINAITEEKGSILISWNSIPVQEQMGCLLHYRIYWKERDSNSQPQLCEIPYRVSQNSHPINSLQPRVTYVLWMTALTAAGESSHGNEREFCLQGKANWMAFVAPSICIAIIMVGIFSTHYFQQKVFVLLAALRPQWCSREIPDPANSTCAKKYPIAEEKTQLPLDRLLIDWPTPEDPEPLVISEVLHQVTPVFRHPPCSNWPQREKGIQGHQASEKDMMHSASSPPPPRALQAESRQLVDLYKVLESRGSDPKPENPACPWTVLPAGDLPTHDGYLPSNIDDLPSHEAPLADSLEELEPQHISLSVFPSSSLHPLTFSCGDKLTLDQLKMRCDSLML
"IL-2 signal transduction, HEK-IL-2-PD-1 [1] [%]","IL-2 signal transduction, HEK-IL-2 [2] [%]","IL-2 signal transduction, HEK-IL-2-PD-1 [3] [%]","IL-12 signal transduction, HEK-IL-12-PD-1 [3] [%]","IL-12 signal transduction, HEK-IL-12 [4] [%]","IL-2 signal transduction, HEK-IL-2 [5] [%]",Binder
20,2,–,–,–,–,IL-2(R38D/K43E/E61R/Q126T)/PD-L1(mut2)-Fc (Fc fusion) chain 1: FTVTVPKDLYVVEYGSNMTIECKFPVEKQLDLAALQVYWMMEDKNIIQFVHGEEDLKVQHSSYRQRARLLKDQLSLGNAALQITDVKLQDAGVYTCLIAYKGADYKRITVKVNAPYNKINQRILVVDPVTSEHELTCQAEGYPKAEVIWTSSDHQVLSGKTTTTNSKREEKLFNVTSTLRINTTTNEIFYCTFRRLDPEENHTAELVIPELPLAHPPNERGGGGSGGGDKTHTCPPCPAPEDEGGPSVFLFPPKPKDTLMISRTPEVTCVVVDVSHEDPEVKFNWYVDGVEVHNAKTKPREEQYNSTYRVVSVLTVLHQDWLNGKEYKCKVSNKALPAPIEKTISKAKGQPREPQVYVYPPSREEMTKNQVSLTCLVKGFYPSDIAVEWESNGQPENNYKTTPPVLDEDGSFALVSKLTVDKSRWQQGNVFSCSVMHEALHNHYTQKSLSLSPGK chain 2: FTVTVPKDLYVVEYGSNMTIECKFPVEKQLDLAALQVYWMMEDKNIIQFVHGEEDLKVQHSSYRQRARLLKDQLSLGNAALQITDVKLQDAGVYTCLIAYKGADYKRITVKVNAPYNKINQRILVVDPVTSEHELTCQAEGYPKAEVIWTSSDHQVLSGKTTTTNSKREEKLFNVTSTLRINTTTNEIFYCTFRRLDPEENHTAELVIPELPLAHPPNERGGGSGAPTSSSTKKTQLQLEHLLLDLQMILNGINNYKNPKLTDMLTFEFYMPKKATELKHLQCLERELKPLEEVLNLAQSKNFHLRPRDLISNINVIVLELKGSETTFMCEYADETATIVEFLNRWITFCTSIISTLTGGGGSGGGDKTHTCPPCPAPEKKGGPSVFLFPPKPKDTLMISRTPEVTCVVVDVSHEDPEVKFNWYVDGVEVHNAKTKPREEQYNSTYRVVSVLTVLHQDWLNGKEYKCKVSNKALPAPIEKTISKAKGQPREPQVYVLPPSREEMTKNQVSLLCLVKGFYPSDIAVEWESNGQPENRYMTWPPVLDSDGSFFLYSKLTVDKSRWQQGNVFSCSVMHEALHNHYTQKSLSLSPGK
–,–,35,19,< 0.2,4,IL-2(L18R/Q22E/R38D/K43E/E61R)/IL-12(E59A/F60A)/PD-L1(mut2)-Fc (Fc fusion) chain 1: FTVTVPKDLYVVEYGSNMTIECKFPVEKQLDLAALQVYWMMEDKNIIQFVHGEEDLKVQHSSYRQRARLLKDQLSLGNAALQITDVKLQDAGVYTCLIAYKGADYKRITVKVNAPYNKINQRILVVDPVTSEHELTCQAEGYPKAEVIWTSSDHQVLSGKTTTTNSKREEKLFNVTSTLRINTTTNEIFYCTFRRLDPEENHTAELVIPELPLAHPPNERGGGGSGGGIWELKKDVYVVELDWYPDAPGEMVVLTCDTPEEDGITWTLDQSSEVLGSGKTLTIQVKAAGDAGQYTCHKGGEVLSHSLLLLHKKEDGIWSTDILKDQKEPKNKTFLRCEAKNYSGRFTCWWLTTISTDLTFSVKSSRGSSDPQGVTCGAATLSAERVRGDNKEYEYSVECQEDSACPAAEESLPIEVMVDAVHKLKYENYTSSFFIRDIIKPDPPKNLQLKPLKNSRQVEVSWEYPDTWSTPHSYFSLTFCVQVQGKSKREKKDRVFTDKTSATVICRKNASISVRAQDRYYSSSWSEWASVPCSGGGGSGGGSGGGGSRNLPVATPDPGMFPCLHHSQNLLRAVSNMLQKARQTLEFYPCTSEEIDHEDITKDKTSTVEACLPLELTKNESCLNSRETSFITNGSCLASRKTSFMMALCLSSIYEDLKMYQVEFKTMNAKLLMDPKRQIFLDQNMLAVIDELMQALNFNSETVPQKSSLEEPDFYKTKIKLCILLHAFRIRAVTIDRVMSYLNASGGGGSGGGDKTHTCPPCPAPEDEGGPSVFLFPPKPKDTLMISRTPEVTCVVVDVSHEDPEVKFNWYVDGVEVHNAKTKPREEQYNSTYRVVSVLTVLHQDWLNGKEYKCKVSNKALPAPIEKTISKAKGQPREPQVYVYPPSREEMTKNQVSLTCLVKGFYPSDIAVEWESNGQPENNYKTTPPVLDEDGSFALVSKLTVDKSRWQQGNVFSCSVMHEALHNHYTQKSLSLSPGK chain 2: FTVTVPKDLYVVEYGSNMTIECKFPVEKQLDLAALQVYWMMEDKNIIQFVHGEEDLKVQHSSYRQRARLLKDQLSLGNAALQITDVKLQDAGVYTCLIAYKGADYKRITVKVNAPYNKINQRILVVDPVTSEHELTCQAEGYPKAEVIWTSSDHQVLSGKTTTTNSKREEKLFNVTSTLRINTTTNEIFYCTFRRLDPEENHTAELVIPELPLAHPPNERGGGSGAPTSSSTKKTQLQLEHLRLDLEMILNGINNYKNPKLTDMLTFEFYMPKKATELKHLQCLERELKPLEEVLNLAQSKNFHLRPRDLISNINVIVLELKGSETTFMCEYADETATIVEFLNRWITFCQSIISTLTGGGGSGGGDKTHTCPPCPAPEKKGGPSVFLFPPKPKDTLMISRTPEVTCVVVDVSHEDPEVKFNWYVDGVEVHNAKTKPREEQYNSTYRVVSVLTVLHQDWLNGKEYKCKVSNKALPAPIEKTISKAKGQPREPQVYVLPPSREEMTKNQVSLLCLVKGFYPSDIAVEWESNGQPENRYMTWPPVLDSDGSFFLYSKLTVDKSRWQQGNVFSCSVMHEALHNHYTQKSLSLSPGK
5,< 0.1,–,–,–,–,IL-2(L18R/Q22E/R38D/K43E/E61R/Q126T)/PD-L1(mut2)-Fc (Fc fusion) chain 1: FTVTVPKDLYVVEYGSNMTIECKFPVEKQLDLAALQVYWMMEDKNIIQFVHGEEDLKVQHSSYRQRARLLKDQLSLGNAALQITDVKLQDAGVYTCLIAYKGADYKRITVKVNAPYNKINQRILVVDPVTSEHELTCQAEGYPKAEVIWTSSDHQVLSGKTTTTNSKREEKLFNVTSTLRINTTTNEIFYCTFRRLDPEENHTAELVIPELPLAHPPNERGGGGSGGGDKTHTCPPCPAPEDEGGPSVFLFPPKPKDTLMISRTPEVTCVVVDVSHEDPEVKFNWYVDGVEVHNAKTKPREEQYNSTYRVVSVLTVLHQDWLNGKEYKCKVSNKALPAPIEKTISKAKGQPREPQVYVYPPSREEMTKNQVSLTCLVKGFYPSDIAVEWESNGQPENNYKTTPPVLDEDGSFALVSKLTVDKSRWQQGNVFSCSVMHEALHNHYTQKSLSLSPGK chain 2: FTVTVPKDLYVVEYGSNMTIECKFPVEKQLDLAALQVYWMMEDKNIIQFVHGEEDLKVQHSSYRQRARLLKDQLSLGNAALQITDVKLQDAGVYTCLIAYKGADYKRITVKVNAPYNKINQRILVVDPVTSEHELTCQAEGYPKAEVIWTSSDHQVLSGKTTTTNSKREEKLFNVTSTLRINTTTNEIFYCTFRRLDPEENHTAELVIPELPLAHPPNERGGGSGAPTSSSTKKTQLQLEHLRLDLEMILNGINNYKNPKLTDMLTFEFYMPKKATELKHLQCLERELKPLEEVLNLAQSKNFHLRPRDLISNINVIVLELKGSETTFMCEYADETATIVEFLNRWITFCTSIISTLTGGGGSGGGDKTHTCPPCPAPEKKGGPSVFLFPPKPKDTLMISRTPEVTCVVVDVSHEDPEVKFNWYVDGVEVHNAKTKPREEQYNSTYRVVSVLTVLHQDWLNGKEYKCKVSNKALPAPIEKTISKAKGQPREPQVYVLPPSREEMTKNQVSLLCLVKGFYPSDIAVEWESNGQPENRYMTWPPVLDSDGSFFLYSKLTVDKSRWQQGNVFSCSVMHEALHNHYTQKSLSLSPGK
< 0.1,< 0.1,–,–,–,–,IL-2(L18R/Q22E/R38D/K43E/E61R/Q126T/S130R)/PD-L1(mut2)-Fc (Fc fusion) chain 1: FTVTVPKDLYVVEYGSNMTIECKFPVEKQLDLAALQVYWMMEDKNIIQFVHGEEDLKVQHSSYRQRARLLKDQLSLGNAALQITDVKLQDAGVYTCLIAYKGADYKRITVKVNAPYNKINQRILVVDPVTSEHELTCQAEGYPKAEVIWTSSDHQVLSGKTTTTNSKREEKLFNVTSTLRINTTTNEIFYCTFRRLDPEENHTAELVIPELPLAHPPNERGGGGSGGGDKTHTCPPCPAPEDEGGPSVFLFPPKPKDTLMISRTPEVTCVVVDVSHEDPEVKFNWYVDGVEVHNAKTKPREEQYNSTYRVVSVLTVLHQDWLNGKEYKCKVSNKALPAPIEKTISKAKGQPREPQVYVYPPSREEMTKNQVSLTCLVKGFYPSDIAVEWESNGQPENNYKTTPPVLDEDGSFALVSKLTVDKSRWQQGNVFSCSVMHEALHNHYTQKSLSLSPGK chain 2: FTVTVPKDLYVVEYGSNMTIECKFPVEKQLDLAALQVYWMMEDKNIIQFVHGEEDLKVQHSSYRQRARLLKDQLSLGNAALQITDVKLQDAGVYTCLIAYKGADYKRITVKVNAPYNKINQRILVVDPVTSEHELTCQAEGYPKAEVIWTSSDHQVLSGKTTTTNSKREEKLFNVTSTLRINTTTNEIFYCTFRRLDPEENHTAELVIPELPLAHPPNERGGGSGAPTSSSTKKTQLQLEHLRLDLEMILNGINNYKNPKLTDMLTFEFYMPKKATELKHLQCLERELKPLEEVLNLAQSKNFHLRPRDLISNINVIVLELKGSETTFMCEYADETATIVEFLNRWITFCTSIIRTLTGGGGSGGGDKTHTCPPCPAPEKKGGPSVFLFPPKPKDTLMISRTPEVTCVVVDVSHEDPEVKFNWYVDGVEVHNAKTKPREEQYNSTYRVVSVLTVLHQDWLNGKEYKCKVSNKALPAPIEKTISKAKGQPREPQVYVLPPSREEMTKNQVSLLCLVKGFYPSDIAVEWESNGQPENRYMTWPPVLDSDGSFFLYSKLTVDKSRWQQGNVFSCSVMHEALHNHYTQKSLSLSPGK
